Results reported in patent publication US11732048B2, “Anti-axl antagonistic antibodies” (BERGEN TEKNOLOGIOVERFØRING AS, priority 2016, dated 2023).
Entries after “also recorded” stand apart in the source; their conditions may differ.

B1: murine 10G5: mouse monoclonal anti-human Axl antibody from hybridoma WR-10G5-E5; VH SEQ ID NO: 28, VL SEQ ID NO: 29 (antibody, listed as Mus musculus, V domains shown)
VH: QVQLQQSGAELVRPGASVKLSCKASGYSFTDFYINWVRQRPGQGLEWIARIFPGGDNTYYNEKFKGKATLTAEESSSTAYIQLSSLTSEDSAVYFCARRGLYYAMDYWGQGISVTVSS
VL: DVLMTQTPLSLPVSLGDQASISCRSSQSLVHSNGIPYLHWYLQKPGQSPKLLIYRVSNRFSGVPDRFSGSGSGTDFTLKISRVEAEDLGVYFCSQGTHVPPTFGGGTKLEIK
modifications: (1)..(118) Mus musculus 10G5 VH domain; (1)..(112) Mus musculus 10G5 VL domain
B2: c10G5: chimeric (mouse variable/human constant) IgG1 antibody with the 10G5 VH and VL (antibody, V domains shown)
VH: QVQLQQSGAELVRPGASVKLSCKASGYSFTDFYINWVRQRPGQGLEWIARIFPGGDNTYYNEKFKGKATLTAEESSSTAYIQLSSLTSEDSAVYFCARRGLYYAMDYWGQGISVTVSS
VL: DVLMTQTPLSLPVSLGDQASISCRSSQSLVHSNGIPYLHWYLQKPGQSPKLLIYRVSNRFSGVPDRFSGSGSGTDFTLKISRVEAEDLGVYFCSQGTHVPPTFGGGTKLEIK

How the values were obtained:
[1] = biological target: T1, human Axl (rhAxl-Fc chimera) (Homo sapiens, UniProt P30530); assay: Biacore binding analysis on immobilised human Axl; settings: 10 μg/mL in HBS-EP, 25° C.
T1 construct: Soluble recombinant antigens corresponding to the extracellular domains of members of the human TAM receptor family; Fc; purchased R&D Systems 154-AL
Protocol: All binding experiments were performed using Biacore 3000 instrument (GE Healthcare) at 25° C. Soluble recombinant antigens corresponding to the extracellular domains of members of the human TAM receptor family, Axl (rhAxl-Fc chimera; R&D Systems, Cat. no. 154-AL), Mer (rhMer-Fc chimera; R&D Systems, Cat. no. 891-MR) and Tyro3 (rhTyro3/Dtk-Fc chimera; R&D Systems, Cat. no. 859-DK) were immobilized on the surface of CM5 sensor chip using amine coupling at the surface density of 393.0, 303.6 and 364.0 resonance units (RU), respectively. The Biacore run was performed in an automatic mode using Binding analysis wizard. Samples containing MAb 10G5 at concentration 10 μg/mL in HBS-EP buffer (GE Healthcare) were injected over the surfaces with immobilized antigens at flow rate of 30 μL/min for 3 min (association) followed by 5 min dissociation.
The binding experiments were performed using Biacore 3000 instrument (GE Healthcare) at 25° C. The soluble recombinant antigens corresponding to human Axl (rhAxl-Fc chimera; R&D Systems, Cat. no. 154-AL), mouse Axl (rmAxl-Fc chimera; R&D Systems, R&D Systems; Cat. no. 854-AX) and human Tyro3 (rhTyro3/Dtk-Fc chimera; R&D Systems, Cat. no. 859-DK) were immobilized on the surface of CM5 sensor chip using amine coupling at the surface density of 1,308.0, 2,115.9 and 1,429.0 RU, respectively. The Biacore runs were performed in an automatic mode using Binding analysis wizard.
The sample containing MAb 10G5 or recombinant mouse (rm) Axl-ligand Gas6 (R&D Systems, Cat. no. 986-GS/CF) at concentration 10 μg/mL in HBS-EP buffer (GE Healthcare) was injected over the surfaces with immobilized antigens at flow rate of 30 μL/min for 3 min (association) followed by 5 min dissociation.
The sequence of Axl receptor from cynomolgus monkey (Macaca fascicularis; SEQ ID NO: 27) was retrieved from WO2009062690A1. Based on the sequence, recombinant extracellular domain of cyno-Axl was generated by transient expression in CHO cells as a fusion protein with human Fc. The recombinant cyno-Axl-Fc was purified to homogeneity using Protein A-Sepharose (GE Healthcare). The binding experiments were performed using Biacore 3000 instrument (GE Healthcare) at 25° C. The soluble recombinant antigens corresponding to human Axl (rhAxl-Fc chimera; R&D Systems, Cat. no. 154-AL) and cyno-Axl were immobilized on the surface of CM5 sensor chip using amine coupling at the surface density of 775 and 880 RU, respectively. The Biacore runs were performed in an automatic mode using Binding analysis wizard.
The sample containing MAb 10G5 or human Axl-specific MAb 5F11 (control) at concentration 10 μg/mL in HBS-EP buffer (GE Healthcare) was injected over the surfaces with immobilized antigens at flow rate of 30 μL/min for 3 min (association) followed by 5 min dissociation. […]

[2] = tested on: Axl-positive cells (MDA-MB-231); assay: Flow cytometry binding to Axl-positive cells; design: species or system human
Protocol: Different concentrations of chimeric antibody was tested in flow cytometry for binding to triple-negative breast cancer cell line MDA-MB-231. The bound chimeric antibody was detected with APC-conjugated donkey F(ab′)2 fragments specific for either mouse IgG (H+L), 1:500 dilution, or human IgG (H+L), 1:300 dilution, respectively (both from Jackson ImmunoResearch). The cell staining was measured using Accuri C6 flow cytometer (BD Biosciences). MFI, geometric mean fluorescence intensity.
For flow cytometry, the adherent cells in culture were washed with PBS, detached by trypsin (0.25%) treatment for 1 min and hitting culture dish for full detachment. Trypsin was quenched by adding into the tissue flask the complete medium followed by washing the cells with PBS. […]
The purified chimeric antibodies (>95% purity) were analysed for binding to Axl-positive breast cancer cell line MDA-MB-231 in flow cytometry. […] The cell-bound antibodies were detected with APC-conjugated donkey anti-human or anti-mouse, respectively, IgG (H+L) F(ab′)2 fragments (Jackson ImmunoResearch). […]
For flow cytometry, the adherent cells in culture were washed with PBS, detached by treatment with trypsin (0.25%) for 1 min. […] The cell-bound antibodies were detected with APC-conjugated donkey anti-human IgG (H+L) F(ab′)2 fragments (Jackson ImmunoResearch Laboratories #709-136-149, 1:400 dilution). […]

Molecule	Binding to human Axl [1]	Binding to Axl+ cells in flow cytometry (clone selection) ([2]; Example 1)	Binding to Axl-positive MDA-MB-231 cells in flow cytometry ([2]; titration of antibody, APC-conjugated secondary)
B1	bind strongly; also recorded: specific binding; also recorded: strong and specific interaction	specific binding	
B2	binds immobilized Axl with profiles very similar to the binding profiles of the corresponding mouse antibody		Dose-dependent binding
